Assays:
[1] = molecular target: T1, gD tagged human FcRH1 on SVT2 cells (human, UniProt Q96LA6 17-429); test: FACS, SVT2.MSCV.gD.FcRH1 cells, PE secondary antibody
T1 construct: whole, on cells; also called huFcRH1; not shown: gD tag
T1 sequence (looked up): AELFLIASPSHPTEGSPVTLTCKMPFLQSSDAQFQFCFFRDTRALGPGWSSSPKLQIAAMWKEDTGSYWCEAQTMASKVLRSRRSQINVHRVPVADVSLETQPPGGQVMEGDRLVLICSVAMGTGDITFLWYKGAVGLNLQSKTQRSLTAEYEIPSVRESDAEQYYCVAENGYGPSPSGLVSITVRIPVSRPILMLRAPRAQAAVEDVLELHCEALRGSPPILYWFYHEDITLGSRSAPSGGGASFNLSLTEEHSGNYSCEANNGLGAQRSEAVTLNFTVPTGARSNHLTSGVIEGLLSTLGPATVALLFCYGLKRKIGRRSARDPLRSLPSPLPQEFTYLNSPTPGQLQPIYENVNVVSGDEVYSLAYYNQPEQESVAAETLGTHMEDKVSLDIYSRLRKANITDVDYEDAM

[2] = molecular target: T2, human FcRH5 on stably transfected cells (BJAB.huFcRH5, OPM2.huFcRH5) (human, UniProt Q96RD9 16-977); test: Scatchard analysis: 0.5 nM 125I-labeled antibody competed with the unlabeled antibody (50 to 0.02 nM) on BJAB.huFcRH5 cells, 4 h at 4 C; St. Error 0.007
T2 construct: also called BJAB-FcRH5; OPM2-FcRH5
T2 chain: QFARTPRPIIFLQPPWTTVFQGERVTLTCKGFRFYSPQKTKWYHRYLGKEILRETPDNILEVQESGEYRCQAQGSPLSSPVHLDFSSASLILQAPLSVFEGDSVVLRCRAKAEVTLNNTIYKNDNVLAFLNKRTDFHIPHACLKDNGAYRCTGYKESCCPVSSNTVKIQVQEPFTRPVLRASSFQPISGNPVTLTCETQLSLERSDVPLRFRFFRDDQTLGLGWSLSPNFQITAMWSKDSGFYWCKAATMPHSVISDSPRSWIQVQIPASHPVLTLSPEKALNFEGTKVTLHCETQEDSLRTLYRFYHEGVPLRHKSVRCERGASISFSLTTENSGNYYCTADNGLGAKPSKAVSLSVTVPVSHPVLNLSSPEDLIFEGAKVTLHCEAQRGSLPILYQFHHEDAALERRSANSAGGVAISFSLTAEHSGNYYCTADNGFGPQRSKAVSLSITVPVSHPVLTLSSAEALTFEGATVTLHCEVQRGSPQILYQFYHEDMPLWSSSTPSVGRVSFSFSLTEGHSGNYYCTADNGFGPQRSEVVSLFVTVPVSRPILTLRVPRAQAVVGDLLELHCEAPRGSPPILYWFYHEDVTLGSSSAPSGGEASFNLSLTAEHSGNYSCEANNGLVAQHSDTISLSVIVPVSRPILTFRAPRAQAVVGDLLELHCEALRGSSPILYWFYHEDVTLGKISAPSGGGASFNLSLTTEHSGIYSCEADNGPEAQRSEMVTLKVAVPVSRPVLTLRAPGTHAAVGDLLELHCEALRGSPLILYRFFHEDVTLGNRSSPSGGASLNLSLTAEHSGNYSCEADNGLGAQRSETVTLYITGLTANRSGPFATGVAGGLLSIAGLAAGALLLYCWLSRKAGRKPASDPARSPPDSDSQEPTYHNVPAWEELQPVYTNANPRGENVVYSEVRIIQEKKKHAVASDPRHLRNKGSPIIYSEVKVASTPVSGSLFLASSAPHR

[3] = molecular target: T3, gD tagged human FcRH3 on SVT2 cells (human, UniProt Q96P31 18-734); test: FACS, SVT2.MSCV.gD.FcRH3 cells, PE secondary antibody
T3 construct: whole, on cells; also called huFcRH3; not shown: gD tag; the construct for this FcRH is not described
T3 sequence (looked up): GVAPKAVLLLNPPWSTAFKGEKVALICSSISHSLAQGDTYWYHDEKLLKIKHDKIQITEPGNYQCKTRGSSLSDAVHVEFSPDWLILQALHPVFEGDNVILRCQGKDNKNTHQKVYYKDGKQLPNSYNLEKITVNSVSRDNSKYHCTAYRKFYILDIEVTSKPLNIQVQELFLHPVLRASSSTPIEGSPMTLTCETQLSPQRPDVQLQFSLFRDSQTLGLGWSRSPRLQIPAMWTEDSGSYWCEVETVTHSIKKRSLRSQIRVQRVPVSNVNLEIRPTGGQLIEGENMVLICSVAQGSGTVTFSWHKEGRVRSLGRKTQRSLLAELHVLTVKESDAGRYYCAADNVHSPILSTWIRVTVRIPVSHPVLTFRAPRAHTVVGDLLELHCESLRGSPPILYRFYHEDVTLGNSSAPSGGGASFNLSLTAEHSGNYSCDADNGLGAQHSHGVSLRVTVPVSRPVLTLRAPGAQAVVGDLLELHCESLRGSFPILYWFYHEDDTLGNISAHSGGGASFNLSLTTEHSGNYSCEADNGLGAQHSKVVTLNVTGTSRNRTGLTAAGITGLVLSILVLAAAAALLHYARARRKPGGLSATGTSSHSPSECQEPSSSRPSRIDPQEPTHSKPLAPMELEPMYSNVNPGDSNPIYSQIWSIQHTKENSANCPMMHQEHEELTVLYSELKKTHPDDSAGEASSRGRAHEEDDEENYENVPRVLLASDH

B1: murine monoclonal antibody anti-FcRH5-13G9 (antibody, V domains shown)
VH: EVQLVQSGPELKKPGETVKISCKASGYTFTNYGMNWVKQAPGKGLKWMGWVNTYTGEPTYTDDFKGRFAFSVETSASTVFLQINNLKNEDTATYFCARRSIPYYYAMDYWGQGTSLT
VL: DIVMTQSQKIMSTSVGDRVNVTCKASQNVGSNVAWYHQKPGQSPKALIYSASYRYSGVPDRFTGSGSGTDFTLTISNVQSEDLAEYFCQQYKTWTFGGGTKLEIKR
notes: Whole murine IgG from hybridoma; also called 13G9.1.1; mu13G9
In the case of B1, the binding result [1] is reported as “no binding (tested: 1.0 ug per about 10^6 cells (p-1120))”, the Kd [2] is reported as 0.13 nM and the binding result [3] is reported as “no binding (tested: 1.0 ug per about 10^6 cells (p-1120))”.
